From PMC10694668 (The Journal of Biological Chemistry, 2023) come the findings set out here.

Sequences and labels used below:
B3: Cg25c NC1 domain of the tissue-extracted (endogenous) NC1 hexamer (domain or fragment, Drosophila (endogenous in fly pellet))
chain: LDYLTGILITRHSQSETVPACSAGHTELWTGYSLLYVDGNDYAHNQDLGSPGSCVPRFSTLPVLSCGQNNVCNYASRNDKTFWLTTNAAIPMMPVENIEIRQYISRCVVCEAPANVIAVHSQTIEVPDCPNGWEGLWIGYSFLMHTAVGNGGGGQALQSPGSCLEDFRATPFIECNGAKGTCHFYETMTSFWMYNLESSQPFERPQQQTIKAGERQSHVSRCQVCMKNSS
modifications: sulfilimine cross-links in the tissue-extracted hexamer
notes: collagen IV Cg25c chain of Drosophila, NC1 domain set free by collagenase; NC1 numbering starts at residue 1551 of P08120; Fly Pellet, DGRC Stock 1661280; also called Cg25c chain; source: purified from Drosophila pellet (collagenase treatment; SEC, Q-sepharose, hydroxyapatite)
B4: Cg25c NC1 domain as it stands in the single-chain CVC trimer (domain or fragment, Drosophila)
chain: LDYLTGILITRHSQSETVPACSAGHTELWTGYSLLYVDGNDYAHNQDLGSPGSCVPRFSTLPVLSCGQNNVCNYASRNDKTFWLTTNAAIPMMPVENIEIRQYISRCVVCEAPANVIAVHSQTIEVPDCPNGWEGLWIGYSFLMHTAVGNGGGGQALQSPGSCLEDFRATPFIECNGAKGTCHFYETMTSFWMYNLESSQPFERPQQQTIKAGERQSHVSRCQVCMKNSS
notes: collagen IV Cg25c chain of Drosophila, NC1 domain; NC1 numbering starts at residue 1551 of P08120; Not a free chain: joined to the Vkg NC1 domain by GSSASSG linkers on the chain of m5 (it stands there twice; the first copy carries the N-terminal FLAG tag); Made a molecule only for the pairs seen in the CVC crystal structure; source: expiCHO-S cells, as a part of the single-chain CVC trimer; …

For data set [1], the target named is single-chain CVC NC1 trimer (Cg25c-Vkg-Cg25c NC1 domains on one chain, FLAG-tagged, without mEmerald) (Drosophila) (UniProt P08120). The experiment in a line: SEC; trimer peaks pooled, concentrated to ~10 mg/ml, kept at 4 °C for a month (legend: about 6 months) in tris-buffered saline; peaks also pooled and rerun in tris-buffered saline; trimer to hexamer. Background: Size exclusion chromatography separates by hydrodynamic size, large species first.

Data set [2] concerns the target B3. The experiment in a line: SEC; collagenase digest of Drosophila pellet; hexamer peak at 12.99 ml; then Q-sepharose and hydroxyapatite; single band of the sample not boiled cut out, trypsin or chymotrypsin digestion, MS/MS. The note with it: both partners purified.
Data set [3] has as its target B4. The experiment in a line: crystal structure; recombinant CVC trimer, ~8.5 mg/ml, 0.1 M Na/K phosphate pH 6.5, 0.2 M NaCl, 26% PEG 1000, 22 °C; 1.75 Å; hexamer in the crystal. The note with it: both partners purified.
Data set [4] deals with the molecule itself. The experiment in a line: crystal structure; tissue-extracted NC1 hexamer, ~3.5 mg/ml, 35% MPD, 0.1 M NaCl, 100 mM Hepes pH 7.5, 22 °C; 2.98 Å.
Data set [5] concerns the molecule itself. The experiment in a line: crystal structure; recombinant CVC trimer, ~8.5 mg/ml, 0.1 M Na/K phosphate pH 6.5, 0.2 M NaCl, 26% PEG 1000, 22 °C; 1.75 Å; hexamer in the crystal.

In data set [1], “single-chain CVC NC1 trimer (Cg25c-Vkg-Cg25c NC1 domains on one chain, FLAG-tagged, without mEmerald) (from UniProt P08120 1550-1779; Q9VMV5 1510-1739; P08120 1550-1779)” registered a percent in the hexamer peak of 25%.

B1: Vkg NC1 domain of the tissue-extracted (endogenous) NC1 hexamer (domain or fragment, Drosophila (endogenous in fly pellet))
chain: APKSRGFIFARHSQSVHVPQCPANTNLLWEGYSLSGNVAASRAVGQDLGQSGSCMMRFTTMPYMLCDITNVCHFAQNNDDSLWLSTAEPMPMTMTPIQGRDLMKYISRCVVCETTTRIIALHSQSMSIPDCPGGWEEMWTGYSYFMSTLDNVGGVGQNLVSPGSCLEEFRAQPVIECHGHGRCNYYDALASFWLTVIEEQDQFVQPRQQTLKADFTSKISRCTVCRRRGN
modifications: sulfilimine cross-links in the tissue-extracted hexamer
notes: collagen IV Vkg (Viking) chain of Drosophila, NC1 domain set free by collagenase; NC1 numbering starts at residue 1511 of Q9VMV5; peptides of the tail after the NC1 domain were not detected; Fly Pellet, DGRC Stock 1661280; also called Viking; Vkg chain; source: purified from Drosophila pellet (collagenase treatment; SEC, Q-sepharose, hydroxyapatite)
On to B1, for which, in data set [2], the binding result was “binds”.

B2: Vkg NC1 domain as it stands in the single-chain CVC trimer (domain or fragment, Drosophila)
chain: APKSRGFIFARHSQSVHVPQCPANTNLLWEGYSLSGNVAASRAVGQDLGQSGSCMMRFTTMPYMLCDITNVCHFAQNNDDSLWLSTAEPMPMTMTPIQGRDLMKYISRCVVCETTTRIIALHSQSMSIPDCPGGWEEMWTGYSYFMSTLDNVGGVGQNLVSPGSCLEEFRAQPVIECHGHGRCNYYDALASFWLTVIEEQDQFVQPRQQTLKADFTSKISRCTVCRRRGN
notes: collagen IV Vkg (Viking) chain of Drosophila, NC1 domain; NC1 numbering starts at residue 1511 of Q9VMV5; Not a free chain: joined on both sides to Cg25c NC1 domains by GSSASSG linkers on the chain of m5; Made a molecule only for the pairs seen in the CVC crystal structure; source: expiCHO-S cells, as a part of the single-chain CVC trimer; purified (anti-FLAG resin, SEC)
As to B2, in data set [3], the binding result is on record as “binds”.

B3: the binding result in data set [4] is given as “binds”.

Take B4: the binding result in data set [5] was “binds”.
